The record followed here is patent US20250197511A1 (HORIZON THERAPEUTICS IRELAND DAC, published 2025).

In the test the target is IGF-1R on NCI-H322 cells (UniProt P08069 31-1367, limits assumed). Put plainly: cell-based or functional assay.
Sequence of IGF-1R on NCI-H322 cells (P08069 31-1367 limits assumed): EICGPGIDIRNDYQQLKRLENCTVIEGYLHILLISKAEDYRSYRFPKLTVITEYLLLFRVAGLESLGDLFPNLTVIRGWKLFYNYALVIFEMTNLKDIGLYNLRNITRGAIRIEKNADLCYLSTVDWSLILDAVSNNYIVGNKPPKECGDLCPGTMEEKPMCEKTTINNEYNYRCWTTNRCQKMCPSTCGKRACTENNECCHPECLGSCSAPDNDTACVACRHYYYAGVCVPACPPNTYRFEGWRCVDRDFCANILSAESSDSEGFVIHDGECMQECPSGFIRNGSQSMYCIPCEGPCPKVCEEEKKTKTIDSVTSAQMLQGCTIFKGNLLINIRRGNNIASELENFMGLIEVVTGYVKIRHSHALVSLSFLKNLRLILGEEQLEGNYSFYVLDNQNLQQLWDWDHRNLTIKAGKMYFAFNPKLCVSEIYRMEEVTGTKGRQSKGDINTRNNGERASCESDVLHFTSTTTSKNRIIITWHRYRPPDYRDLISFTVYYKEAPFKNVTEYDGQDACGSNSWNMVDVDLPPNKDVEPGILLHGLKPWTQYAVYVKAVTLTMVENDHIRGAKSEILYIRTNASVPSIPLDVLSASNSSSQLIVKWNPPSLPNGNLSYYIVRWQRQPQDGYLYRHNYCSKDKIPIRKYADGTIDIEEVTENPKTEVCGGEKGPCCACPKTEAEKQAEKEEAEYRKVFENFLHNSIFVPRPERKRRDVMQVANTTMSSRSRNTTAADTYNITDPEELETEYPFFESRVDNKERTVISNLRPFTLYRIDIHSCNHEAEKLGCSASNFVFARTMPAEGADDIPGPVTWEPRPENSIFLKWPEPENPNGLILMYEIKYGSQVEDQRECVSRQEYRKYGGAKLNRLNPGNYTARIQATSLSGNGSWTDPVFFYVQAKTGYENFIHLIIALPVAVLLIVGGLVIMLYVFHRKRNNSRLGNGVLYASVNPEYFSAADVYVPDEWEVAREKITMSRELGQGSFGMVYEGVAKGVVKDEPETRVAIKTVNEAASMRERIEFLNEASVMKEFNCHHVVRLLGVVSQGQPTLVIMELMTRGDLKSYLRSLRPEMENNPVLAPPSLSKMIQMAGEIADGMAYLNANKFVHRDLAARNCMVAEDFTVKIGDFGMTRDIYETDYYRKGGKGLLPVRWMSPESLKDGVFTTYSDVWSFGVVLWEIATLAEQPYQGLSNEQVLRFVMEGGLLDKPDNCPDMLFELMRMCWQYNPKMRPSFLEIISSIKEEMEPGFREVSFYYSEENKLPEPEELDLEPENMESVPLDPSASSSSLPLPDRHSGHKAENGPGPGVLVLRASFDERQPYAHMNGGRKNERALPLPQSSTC

B1: Teprotumumab reference antibody (antibody, V domains shown)
VH: QVELVESGGGVVQPGRSQRLSCAASGFTFSSYGMHWVRQAPGKGLEWVAIIWFDGSSTYYADSVRGRFTISRDNSKNTLYLQMNSLRAEDTAVYFCARELGRRYFDLWGRGTLVSVSS
VL: EIVLTQSPATLSLSPGERATLSCRASQSVSSYLAWYQQKPGQAPRLLIYDASKRATGIPARFSGSGSGTDFTLTISSLEPEDFAVYYCQQRSKWPPWTFGQGTKVESK
B1: the “IC50 of inhibition of IGF-1R phosphorylation (antibody dilution started at 100 ug/mL, diluted 1/8)” value stood at 0.397 µg/mL.

B2: D03-YTE (clone D03 with the YTE mutation M252Y/S254T/T256E, EU numbering) (antibody, human IgG1, kappa, V domains shown)
VH: QVELVESGGGVVQPGRSQRLSCAASGFTFSSHGMHWVRQAPGKGLEWVAYIWFDGSSTYYADSVRGRFTISRDNSKNTLYLQMNSLRAEDTAVYFCARELGRRYFDLWGRGTLVSVSS
VL: EIVLTQSPATLSLSPGERATLSCRASQSVSSALAWYQQKPGQAPRLLIYDASKRATGIPARFSGSGSGTDFTLTISSLEPEDFAVYYCQQRSKYPPWTFGQGTKVESKR
For the molecule B2, the “IC50 of inhibition of IGF-1R phosphorylation (antibody dilution started at 100 ug/mL, diluted 1/8)” value is 0.0205 µg/mL.
